Numbering of substitutions follows the chain as printed.
T1: CD25 (Homo sapiens, UniProt P01589)
T1 sequence (P01589 22-272): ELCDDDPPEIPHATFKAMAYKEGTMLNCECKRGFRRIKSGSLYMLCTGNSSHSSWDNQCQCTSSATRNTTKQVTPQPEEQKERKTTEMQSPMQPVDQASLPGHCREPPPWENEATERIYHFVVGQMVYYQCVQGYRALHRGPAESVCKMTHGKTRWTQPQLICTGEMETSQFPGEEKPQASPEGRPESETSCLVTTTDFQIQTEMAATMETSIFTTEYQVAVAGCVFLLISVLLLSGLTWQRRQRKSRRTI

B1: YU389-A03: anti-CD25 scFv clone, SEQ ID NO: 730 (protein, listed as Mus musculus)
scFv: PSQTLSLTCTVSGGSISSGGYYWSWIRQHPGKGLEWIGYIYYSGSTYYNPSLKSRVTISVDTSKNQFSLKLSSVTAADTAVYYCARGNLWSGYYFWGQGTLVTVSSCARGNLWSGYYFWQSVLTQPPSVSAAPGQKVTISCSGSSSNIGNNFVSWYQQVPGTAPKLLTYDSTKRPAGIPDRFSGSKSGTSATLEIAGLQTGDEADYYCGSWDTNLSGYVFGTGTKVTVLCGSWDTNLSGYVF
B2: YU400-D09: anti-CD25 scFv clone, SEQ ID NO: 823 (protein, listed as Mus musculus)
scFv: PGSSVKVSCKASGGTFSSYAISWVRQAPGQGLEWMGGIIPIFGTANYAQKFQGRVTITADESTSTAYMELSSLRSEDTAVYYCARDFNPFSITIFEMDVWGQGTTVTVSSCARDFNPFSITIFEMDVWQSVLTQPPSVSAAPGQKVTISCSGSSSNIGNNYVSWYQQLPGTAPKLLIYDNNKRPSGIPDRFSGSKSGTSATLGITGLQTGDEADYYCGTWDSSLSALVFGGGTKLTVLCGTWDSSLSALVF
B3: YU392-B11: anti-CD25 scFv clone, SEQ ID NO: 750 (protein, listed as Mus musculus)
scFv: PGATVKISCKVSGYTFTDYYMHWVQQAPGKGLEWMGLVDPEDGETIYAEKFQGRVTITADTSTDTAYMELSSLRSEDTAVYYCAVEGGRAPGTYYYDSSGLAYWGQGTLVTVSSCAVEGGRAPGTYYYDSSGLAYWQAGLTQPPSASGTPGQRVTISCSGSSSNIGSNYVYWYQQLPGTAPKLLIYSNNQRPSGVPDRFSGSKSGTSASLAISGLRSEDEADYYCATWDDSLSGVVFGGGTKLTVLCATWDDSLSGVVF
B4: YU397-D01: anti-CD25 scFv clone, SEQ ID NO: 817 (protein, listed as Mus musculus)
scFv: PSGTLSLTCAVSGGSISSSNWWSWVRQPPGKGLEWIGEIYHSGSTNYNPSLKSRVTISVDKSKNQFSLKLSSVTAADTAVYYCARARGGRYFDYWGQGTLVTVSSCARARGGRYFDYWDIVLTQSPSFLSASVGDRVTITCRASQGISTYLAWYQQKPGTAPKVLMYAASTLHSGVPSRFSGSGSGTEFTLTISSLQPEDFAIYYCQQLNGYPTTFGGGTRVEIKCQQLNGYPTTF
B5: YU401-B01: anti-CD25 scFv clone, SEQ ID NO: 827 (protein, listed as Mus musculus)
scFv: PGSSVKVSCKASGGTFSSYAISWVRQAPGQGLEWMGGIIPIFGTANYAQKFQGRVTITADESTSTAYMELSSLRSEDTAVYYCAREMYYYYGMDVWGQGTTVTVSSCAREMYYYYGMDVWDIVMTQSPSSLSASVGDRVTITCRASQSIITYLNWYQQKPGKVPKLLIYAASSLQSGVPSRFSGSGSGTDFTLTISSLQPEDFATYYCQQSYSTPPTFGQGTKLEIKCQQSYSTPPTF
B6: YU398-A11: anti-CD25 scFv clone, SEQ ID NO: 818 (protein, listed as Mus musculus)
scFv: PGRSLRLSCAASGFTFSSYGMHWVRQAPGKGLEWVAVISYDGSNKYYADSVKGRFTISRDNSKNTLYLQMNSLRAEDTAVYYCAKGQGDGMDVWGQGTTVTVSSCAKGQGDGMDVWYELTQPPSASGTPGQRVTISCSGSSSNVGSRTVSWFQQLPGTAPKLLIYSNNLRPSGVPDRFSGSKSGTSASLAISGLQSEDEADYYCAAWDDSLIGHVFGTGTKVTVVCAAWDDSLIGHVF
B7: YU392-A09: anti-CD25 scFv clone, SEQ ID NO: 749 (protein, listed as Mus musculus)
scFv: PGATVKISCKVSGYTFTDYYMHWVQQAPGKGLEWMGLVDPEDGETIYAEKFQGRVTITADTSTDTAYMELSSLRSEDTAVYYCATEGRYGMDVWGQGTTVTVSSCATEGRYGMDVWQAVLTQPPSVSGTPGQRVTISCSGNNFNIGNNLVYWYQQLPGTAPKLLIYANDERPSGVPDRFSGSKSGTSASLAISGLRSEDDADYYCATWDDSLSGVVFGGGTKLTALCATWDDSLSGVVF
B8: YU403-G05: anti-CD25 scFv clone, SEQ ID NO: 835 (protein, listed as Mus musculus)
scFv: PSGDLSLTCDVSGGSISRSNWWIWVRQPPGKGLEWIGEIYHTGSTNYNPSLKRRVTISVDKSKNQFSLNLSSVTAADTAVYYCARGKGSYAFDIWGLGTMVTVSSCARGKGSYAFDIWVLTQPHSVSESPGKTVTISCTGSGGNIARNYVQWYQHRPGRAPSTVIYEDDRRPSGVPDRFSGSTDISSNSASLTISGLKTEDEADYYCQSYDGNNHMVFGGGTRVTVLCQSYDGNNHMVF
B9: YU401-G07: anti-CD25 scFv clone, SEQ ID NO: 831 (protein, listed as Mus musculus)
scFv: LGRSLRLSCAASGFTFSSYGMHWVRQAPGKGLEWVAVISYDGSNKYYADSVKGRFTISRDNSKNTLYLQMNSLRAEDTAVYYCAKGDVNYGMDVWGQGTTVTVSSCAKGDVNYGMDVWSYVLTQPPSVSVAPGQTARISCGGSNIGSKTVNWYRKKAGQAPVLVVYDGRDRPSGIPERFSGSNSGNAATLIISRVEVGDEADYYCQVWDTSGDLHWAFGGGTKLTVLCQVWDTSGDLHWAF
B10: YU400-B07: anti-CD25 scFv clone, SEQ ID NO: 822 (protein, listed as Mus musculus)
scFv: PGRSLRLSCAASGFTFSSYGMHWVRQAPGKGLEWVAVISYDGSNKYYADSVKGRFTISRDNSKNTLYLQMNSLRAEDTAVYYCAKGDVNYGMDVWGQGTTVTVSSCAKGDVNYGMDVWSYVLTQPPSVSVAPGKTARITCGGNNIGSKSVHWYQQKPGQAPVLVVYDDTDRPSGIPERFSGSNSGNTATLTISRVEAGDEADYYCQVWDSSSDLLWVFGGGTKLAVLCQVWDSSSDLLWVF
B11: YU390-A11: anti-CD25 scFv clone, SEQ ID NO: 736 (protein, listed as Mus musculus)
scFv: PGRSLRLSCAASGFTFSSYGMHWVRQAPGKGLEWVAVISYDGSNKYYADSVKGRFTISRDNSKNTLYLQMNSLRAEDTAVYYCAKELLEGAFDIWGQGTMVTVSSCAKELLEGAFDIWSYVLTQPPSLSVAPGQTARITCGGDNIETKSVHWYQQRPGQAPVLVVYDDDDRPSGIPERFSGSNSGNTATLTISRVEAGDEADYYCQVWDSSSGHREVFGGRTKPALLCQVWDSSSGHREVF
B12: YU390-B12: anti-CD25 scFv clone, SEQ ID NO: 738 (protein, listed as Mus musculus)
scFv: B11 scFv with R221G, P224L, A225T, L226V

Biological target: T1, CD25
Test: Binding of human IgG1 format antibodies to CD25 by Octet
Settings: read-out: Biosensor Measured CD25 Affinity
From the text: Thirty antibodies were selected for additional testing as full-length immunoglobulins. The heavy and light chain sequences were cloned into human immunoglobulin G (IgG1) format and expressed and purified.

Kd [nM]	Molecule
9.55	B1
54.6	B2
65.6	B3
3.86	B4
70.4	B5
12.1	B6
12.4	B7
31.9	B8
15.3	B9
57.8	B10
13.3	B11
13.7	B12
